Target: GST tagged constitutively activated K-Ras4B (GST-K-RasV12) (UniProt P01116-2 1-188, V12)
Experiment: pull-down

fold selectivity for K-Ras over H-Ras: ~7 fold
B1: BRI3BP domain identified in the two-hybrid assay, overexpressed in mammalian cells (domain or fragment, UniProt Q8BXV2 85-253, looked up)
chain: RFVQGVDMFLETLWKVWMELLEVLGLDVSNLSQYFSPASVSNSPTRALVLVGVVLLAYWFLSLTLGFTFSLLHLVFGRFFWLVRVILFSMSCVYILHKYEGEPEHAVLPLCVVVAIYFMTGPMGYWRGSPGGLCSPSVEEKLEHLENQVRLLNIRLNRVLENLDRSKDK

Reference: paper doi:10.1101/2021.09.21.461216 (bioRxiv, 2021)
